Target: CD46 (human, UniProt P15529)
Assay: cell-based or functional assay

B1: MeV HEdm wildtype (wt) protein (other)
chain: MSPQRDRINAFYKDNPHPKGSRIVINREHLMIDRPYVLLAVLFVMFLSLIGLLAIAGIRLHRAAIYTAEIHKSLSTNLDVTNSIEHQVKDVLTPLFKIIGDEVGLRTPQRFTDLVKFISDKIKFLNPDREYDFRDLTWCINPPERIKLDYDQYCADVAAEELMNALVNSTLLETRTTNQFLAVSKGNCSGPTTIRGQFSNMSLSLLDLYLGRGYNVSSIVTMTSQGMYGGTYLVEKPNLSSKRSELSQLSMYRVFEVGVIRNPGLGAPVFHMTNYLEQPVSNDLSNCMVALGELKLAALCHGEDSITIPYQGSGKGVSFQLVKLGVWKSPTDMQSWVPLSTDDPVIDRLYLSSHRGVIADNQAKWAVPTTRTDDKLRMETCFQQACKGKIQALCENPEWAPLKDNRIPSYGVLSVDLSLTVELKIKIASGFGPLITHGSGMDLYKSNHNNVYWLTIPPMKNLALGVINTLEWIPRFKVSPYLFTVPIKEAGGDCHAPTYLPAEVDGDVKLSSNLVILPGQDLQYVLATYDTSRVEHAVVYYVYSPSRSFSYFYPFRLPIKGVPIELQVECFTWDQKLWCRHFCVLADSESGGHITHSGMVGMGVSCTVTREDGTNRR
  titer [t.u./ml] of HIV-1 vector particles on 293T cells, concentrated supernatant: 0 t.u./ml
  titer [t.u./ml] of HIV-1 vector particles on U-87MG cells, concentrated supernatant: 0 t.u./ml

From patent US9862971B2 (BUNDESREPUBLIK DEUTSCHLAND, LETZTVERTRETEN DURCH DEN …, dated 2018)
